Test results reported in PMC4442108, “Preclinical Validation of the Heparin-Reactive Peptide p5+14 as a Molecular Imaging Agent for Visceral Amyloidosis” (Molecules, 2015).
Each block holds one molecule with its values, some of them ahead of it. Where no end group is shown, it is not given here. The star is where a group is joined. 125I = [125I]*

Columns and labels:
[1] = Solution stability (stated, unpublished data); type: physicochemical; conditions: Wall and Kennel
[2] = Dynamic PET/CT pharmacokinetics of 124I-p5+14 in WT mice; type: in vivo, mouse (WT); conditions: post injection
Method: Dynamic PET imaging required radioiodination of the peptide with positron emitter, Iodine-124 (^124I; IBA Molecular, Sterling, WV, USA). Peptide p5+14 was radiolabeled using the Iodogen (Piercechemical, Rockford, IL, USA) oxidation method, as described. Briefly, 10 µL of 0.5 M NaPO4 buffer pH 7.6 was added to a 1.5 mL microcentrifuge tube followed by addition of ~50 µL of ^124I (~2 mCi). One µL of 2 mg/mL fresh ascorbic acid solution in phosphate buffered saline (PBS) was added to ensure complete reduction of ^124I-iodine. Approximately 25 µL (~50 µg) of peptide dissolved in distilled H2O was mixed with ~75 µL of PBS and added to the reaction mixture. Seven µL of 1 mg/mL Iodogen dissolved in acetonitrile was added to initiate the reaction. After 2 min, the reaction was quenched by addition of 50 µL of 2 mg/mL ascorbic acid. Twenty µL of blue dextran and 50 µL of filtered (0.2 µm pore sized) 0.1% gelatin in PBS were added to the reaction mixture. Radiolabeled product was separated from free ^124I by size exclusion chromatography as described above. Fractions were manually collected as the blue dextran marker reached the base of the column and the radioactivity in each measured using a dose calibrator (Capintec, Model 15, Ramsey, NJ, USA) set for ^124I detection. Peak fractions were pooled for use in the study, and radiopurity was assessed as described above. […]

[3] = target: synthetic amyloid fibrils of recombinant human λ6 light chain variable domain of patient Wil (rVλ6Wil) (human); test: co-sedimentation; peptide binding assay with rVλ6Wil fibrils in suspension in 10 mM phosphate buffer (pH 7.6) containing 0.15 (PBS), 0.25, 0.5, 1.0 or 2.0 M NaCl; bound peptide as % total counts added; n = 2
[4] = target: synthetic amyloid fibrils of recombinant human λ6 light chain variable domain of patient Wil (rVλ6Wil) (human); test: co-sedimentation; ex vivo amyloid binding assay: 25 µL of 1 mg/mL synthetic rVλ6Wil fibrils resuspended in 200 µL PBS with 0.05% Tween-20, ~5 ng 125I-p5+14 added, rotated at RT for 1 h, centrifuged twice at 15,000 x g; % of counts in the pellet
[5] = target: synthetic amyloid fibrils of recombinant human λ6 light chain variable domain of patient Wil (rVλ6Wil) (human); test: ELISA; EuLISA: rVλ6Wil fibrils coated and dried on NUNC Maxisorb wells (8 µg/mL, 50 µL, overnight 37 °C), blocked with 1% BSA; biotinylated p5+14 1 x 10^-10 to 1 x 10^-6 M, 1 h at 37 °C, PBS with 0.05% Tween 20; europium/streptavidin detection; n = 3

solution stability relative to p5 [1]: greater solution stability
time to clearance from healthy organs [2]: ≤ 2 h
Molecule: GGGYSKAQKAQAKQAKQAQKAQKAQAKQAKQAQKAQKAQAKQAKQ [p5+14]

% bound at 2 M NaCl [3]: 20%
% bound at the lowest NaCl concentration (0.15 M) [3]: 95%
NaCl concentration at half-maximal loss of binding (printed as EC50) [3]: 1 M
% bound [4]: 95.7%
B1: 125I-p5+14 (radioiodinated peptide p5+14) (peptide)
peptide: GGGY(125I)SKAQKAQAKQAKQAQKAQKAQAKQAKQAQKAQKAQAKQAKQ

EC50 [5]: 15 nM
B2: biotinylated p5+14 (with a cysteine residue at the N-terminal) (peptide)
peptide: C(maleimide‑biotin)GGGYSKAQKAQAKQAKQAQKAQKAQAKQAKQAQKAQKAQAKQAKQ
